According to paper PMC2064291:

target: vitronectin (urea-purified); assay: solid-phase binding assay

Substance	fold reduction in binding
soluble uPAR I63A (from UniProt Q03405 23-305) (domain or fragment)	> 5 fold
soluble uPAR R58A (from UniProt Q03405 23-305) (domain or fragment)	> 5 fold
soluble uPAR R91A (from UniProt Q03405 23-305) (domain or fragment)	> 5 fold
soluble uPAR W32A (from UniProt Q03405 23-305) (domain or fragment)	> 5 fold
soluble uPAR Y92A (from UniProt Q03405 23-305) (domain or fragment)	> 5 fold
